We go through one molecule from publication PMC5702532 (2016).

In this experiment the target is Bradykinin (Homo sapiens, UniProt P01042). Put plainly: SPR. Background: SPR reads the build-up and loss of mass on a sensor chip optically.
Sequence of Bradykinin (P01042 whole entry, looked up): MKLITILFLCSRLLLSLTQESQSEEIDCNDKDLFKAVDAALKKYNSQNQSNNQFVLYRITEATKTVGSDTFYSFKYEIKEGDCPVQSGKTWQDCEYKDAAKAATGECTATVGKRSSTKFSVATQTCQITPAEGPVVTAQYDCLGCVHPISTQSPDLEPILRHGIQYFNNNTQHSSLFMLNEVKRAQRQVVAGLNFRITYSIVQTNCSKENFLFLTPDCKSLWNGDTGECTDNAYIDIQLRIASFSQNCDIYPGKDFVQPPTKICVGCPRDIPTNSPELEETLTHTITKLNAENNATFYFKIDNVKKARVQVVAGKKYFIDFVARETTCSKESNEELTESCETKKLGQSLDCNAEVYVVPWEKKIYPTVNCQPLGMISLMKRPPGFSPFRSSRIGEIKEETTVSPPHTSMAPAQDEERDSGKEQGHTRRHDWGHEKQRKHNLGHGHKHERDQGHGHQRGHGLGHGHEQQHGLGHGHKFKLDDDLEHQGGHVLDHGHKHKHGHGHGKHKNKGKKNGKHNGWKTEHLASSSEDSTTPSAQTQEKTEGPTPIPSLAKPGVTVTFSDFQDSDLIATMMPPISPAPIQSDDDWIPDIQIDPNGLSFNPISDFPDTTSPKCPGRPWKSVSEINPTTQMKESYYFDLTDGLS

B1: Aminopeptidase P (APaseP) (protein)
chain: PPKVTSELLRQLRQAMRNSEYVTEPIQAYIIPSGDAHQSEYIAPCDCRRAFVSGFDGSAGTAIITEEHAAMWTDGRYFLQAAKQMDSNWTLMKMGLKDTPTQEDWLVSVLPEGSRVGVDPLIIPTDYWKKMAKVLRSAGHHLIPVKENLVDKIWTDRPERPCKPLLTLGLDYTGISWKDKVADLRLKMAERNVMWFVVTALDEIAWLFNLRGSDVEHNPVFFSYAIIGLETIMLFIDGDRIDAPSVKEHLLLDLGLEAEYRIQVHPYKSILSELKALCADLSPREKVWVSDKASYAVSETIPKDHRCCMPYTPICIAKAVKNSAESEGMRRAHIKDAVALCELFNWLEKEVPKGGVTEISAADKAEEFRRQQADFVDLSFPTISSTGPNGAIIHYAPVPETNRTLSLDEVYLIDSGAQYKDGTTDVTRTMHFGTPTAYEKECFTYVLKGHIAVSAAVFPTGTKGHLLDSFARSALWDSGLDYLHGTGHGVGSFLNVHEGPCGISYKTFSDEPLEAGMIVTDEPGYYEDGAFGIRIENVVLVVPVKTKYNFNNRGSLTFEPLTLVPIQTKMIDVDSLTDKECDWLNNYHLTCRDVIGKELQKQGRQEALEWLIRETQPISKQH
By Kd is commonly meant the equilibrium constant for the complex coming apart. With B1, the affinity, expressed as Kd, was 15.3 µM.
